Laboratory results reported in paper PMC5253704.

Assays:
Assay in all cases: ELISA; one protein (25 nM) or two proteins together (12.5 nM each) coated on wells 16 h at 4 °C in buffer A (20 mM Tris-HCl, 150 mM NaCl, 1 mM ZnCl2, 1 mM CaCl2, 1 mM MgCl2, pH 7.4); soluble protein at 50 to 0.78 nM; detected with antibody and HRP secondary; calculated KD
[1] = target: recombinant murine α3(V)-NTD (N-terminal non-triple helical domain of the α3(V) collagen chain) (murine)
[2] = target: GPC1+FGF2 combined (co-adsorbed on the well) (UniProt P35052)
recombinant FGF2 = recombinant FGF2 (UniProt P09038)
[3] = target: recombinant glypican-1 (R&D Systems) (UniProt P35052)

Sequence of recombinant FGF2 (P09038 143-288): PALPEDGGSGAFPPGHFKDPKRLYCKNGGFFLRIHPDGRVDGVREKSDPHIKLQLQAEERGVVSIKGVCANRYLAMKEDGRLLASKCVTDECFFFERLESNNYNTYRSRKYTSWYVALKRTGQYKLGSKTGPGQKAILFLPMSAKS

recombinant FGF2 (from UniProt P09038 143-288) (ligand)
Kd [1]: 36 nM

recombinant glypican-1 (R&D Systems) (from UniProt P35052 24-530) (natural protein)
Kd [1]: 34 nM

recombinant murine α3(V)-NTD (N-terminal non-triple helical domain of the α3(V) collagen chain) (domain or fragment)
Kd [2]: 16 nM
Kd (recombinant FGF2): 35 nM
Kd [3]: 33 nM
